# Patent US20210380994A1, “LACTOCOCCUS LACTIS EXPRESSION SYSTEM FOR DELIVERING PROTEINS EFFICACIOUS FOR THE TREATMENT OF EPITHELIAL BARRIER FUNCTION DISORDERS” (Second Genome, Inc., priority 2018, published 2021)
# What was measured:
# [1] = PTM of SG-11 versus SG-11V5 after storage, LC-MS/MS (Example 10); assay type: physicochemical
# Protocol: For this analysis, PTMs of wildtype SG-11 (SEQ ID NO:7) and SG-11V5 (SEQ ID NO:19) were compared. In the first analysis (results provided in Table 10 below), the proteins were stored at a concentration of 1 mg/ml in Buffer 1 (50 mM NaPO4, pH 8, 150 mM NaCl, 10% glycerol) and stored for 2 weeks at either 4° C. or 40° C. The proteins were then treated with DTT and Iodoacetamide (IAA), followed by trypsin digestion. The digested samples were then analyzed by Waters ACQUITY UPLC couples to Xevo G2-XS QTOF mass spectrometer using a Protein BEH C18 column.
# In a second analysis, the SG-11 (SEQ ID NO:7) and SG-11V5 (SEQ ID NO:19) proteins were each stored at 40° C. in a variety of buffers. The storage buffer used in this experiment was 100 mM NaPO4, pH7, with 10% sorbitol (+Sor) or without 10% sorbitol (−Sor) and with 10% glycerol (+Gly) or without 10% glycerol (−Gly) as indicated in Table 11. […] There were also differences in levels of N137 deamidation for the two proteins with the presence of at least glycerol and also the presence of both sorbitol and glycerol resulting in large decreases in N137 deamidation.
# [2] = test system: C57BL/6 mice treated with DSS; test: concurrent (prophylactic) DSS model of inflammatory bowel disease (Examples 4, 13A); assay type: in vivo; details: for 4KDa-FITC signal in serum: Example 13, first model, SG-11 (SEQ ID NO:9) 50 nmoles/kg i.p. b.i.d. (FIG. 18A, p=0.04), SG-11V5 (printed FIG. 18B, p=0.21)
# Protocol: On day six, mice were fasted for four hours and then orally gavaged with 600 mg/kg 4KDa dextran labeled with fluorescein isothiocyanate (FITC) [4KDa-FITC]. One hour after the 4KDa-FITC gavage, mice were euthanized, blood was collected, and FITC signal was measured in serum. […] The magnitude of 4KDa-FITC dextran translocation observed for SG-11 was similar to the positive control of Gly2-GLP2. Results are shown in FIG. 3, and are presented as mean±SEM. The graph in FIG. 3 represents data pooled from 3 independent experiments, each using 10 mice (n=30).
# SG-11 was also assessed for its effects on the levels of lipopolysaccharide (LPS) binding protein (LBP) in the blood of the DSS animal with and without SG-11 administration. LBP, which has been linked to clinical disease activity in subjects with inflammatory bowel disease, was also measured by […] in the serum of mice tested in the DSS model described in this Example. […] Results are shown in FIG. 4, and are presented as mean±SEM. The graph in FIG. 4 represents data pooled from 3 independent experiments (n=30; each experiment using 10 mice).
# Body weight was measured daily from mice included in the DSS model described in this Example. Percent change from starting weight on day 0 was determined for each mouse. […] Weight loss in mice treated with SG-11 at day 6 was similar to weight loss observed with Gly2-GLP2. The graph in FIG. 5 represents data pooled from two independent experiments (n=20; each experiment using 10 mice).
# Gross pathology observations were made in mice included in the concurrent DSS model performed in this Example. […] No differences in clinical scores were observed between mice given DSS and treated with either Gly2-GLP2 or SG-11. The scoring system used was: (0)=no gross pathology, (1)=streaks of blood visible in feces, (2)=completely bloody fecal pellets, (3) bloody fecal material visible in cecum, (4) bloody fecal material in cecum and loose stool, (5)=rectal bleeding. The graph in FIG. 6 represents data pooled from 3 independent experiments (n=30; each experiment using 10 mice).
# In addition, histopathology analysis was performed on proximal and distal colon tissues from the DSS model animals. […] LMA Loss of mucosal architecture, Edema=Edema, INF=Inflammation. TMI=Transmural inflammation, MH=Mucosal hyperplasia, DYS=Dysplasia. Graphs represent data pooled from two independent experiments, and are plotted as mean±SEM. Statistical analysis was performed by a one-way ANOVA compared to DSS+vehicle followed by a Fisher's LSD test for multiple comparisons.
# Colon length was measured in mice included in the DSS model described above. […] The graphs in FIGS. 8A and 8B represent data pooled from 3 independent experiments (n=30). Data are graphed as mean SEM and are pooled from three independent experiments (n=30; each experiment using 10 mice). Statistical analysis was performed by a one-way ANOVA followed by a Fisher's LSD multiple comparisons test.
# Briefly, in the first DSS mouse model (Example 13A), mice were treated on day zero with test compound intraperitoneally (i.p.) and 6 hours later DSS treatment was initiated. Doses administered included 50 nmoles/kg for SG-11 (SEQ ID NO:9) ([…]), and Gly2-GLP2 (0.2 mg/kg), and a dose response for SG-11V5 (SEQ ID NO:19) including 16 nmoles/kg ([…]), 50 nmoles/kg ([…]) and 158 nmoles/kg (4.0 mg/kg). […] Therapeutic protein treatments were administered twice a day for the duration of the DSS exposure.
# At the end of each DSS model study, mice were fasted for 4 hours and then orally gavaged with 600 mg/kg 4KDa dextran labeled with FITC [4KDa-FITC]. One hour after the 4KDa-FITC gavage, mice were euthanized, blood was collected, and FITC signal was measured in serum. […] Data in both graphs are plotted as mean±SEM and each figure represent data from an individual experiment (n=10 per group).
# Upon completion of the OSS models above. […]
# [3] = for precipitation: pH 5.2
# Protocol: Effect of additives was also tested at the 3 different pH conditions: 150 mM NaCl (FIGS. 15A, 15D and 15G); 150 mM NaCl and 100 mM arginine (FIGS. 15B, 15E and 15H): and 150 mM NaCl and 0.5 M sorbitol (FIGS. 15C, 15F and 15I). Stability was analyzed by analytical SEC.
# Effect of additives was also tested at the 3 different pH conditions: 150 mM NaCl (FIGS. 16A, 16D and 16G); 150 mM NaCl and 100 mM Arg (FIGS. 16B, 16E and 16H); and 150 mM NaCl and 0.5 M sorbitol (FIGS. 16C, 16F and 16I). Stability was analyzed by analytical SEC.
# [4] = 1 mg/ml in Buffer 1 (50 mM NaPO4, pH 8, 150 mM NaCl, 10% glycerol), 2 weeks at 4° C.
# [5] = 1 mg/ml in Buffer 1, 2 weeks at 4° C.
# [6] = 1 mg/ml in Buffer 1, 2 weeks at 40° C.
# [7] = 40° C., 100 mM NaPO4, pH7, + Sor − Gly
# [8] = 40° C., 100 mM NaPO4, pH7, + Sor − Sly (so in the source)
# [9] = 40° C., 100 mM NaPO4, pH7, − Sor − Gly (first column)
# [10] = 40° C., 100 mM NaPO4, pH7, − Sor − Gly (third column as printed)
# [11] = Example 4, 50 nmoles/kg i.p. b.i.d.
# [12] = Example 4, 50 nmoles/kg i.p. b.i.d., vs DSS + vehicle
Molecule,"Oxidation of M1 [1, 4]","Deamidation of N137 [1, 5]","Deamidation of N137 [1, 6]","Oxidation of M1 [1, 6]","Deamidation of N137 [1, 7]","Oxidation of M1 [1, 7]","Deamidation of N137 [1, 8]","Oxidation of M1 [1, 8]","Deamidation of N137 [1, 9]","Oxidation of M1 [1, 9]","Deamidation of N137 [1, 10]","Oxidation of M1 [1, 10]",4KDa-FITC signal in serum [2],colon length ([2]; Example 13A (FIG. 22A)),precipitation [3],also measured
"SG-11: Roseburia hominis protein comprising SEQ ID NO:3; tested as SEQ ID NO:5, SEQ ID NO:7 or FLAG-tagged SEQ ID NO:9 (protein, listed as Rosburia hominis) LEGEESVVYVGKKGVIASLDVETLDQSYYDETELKSYVDAEVEDYTAEHGKNAVKVESLKVEDGVAKLKMKYKTPEDYTAFNGIELYQGKVVASLAAGYVYDGEFARVEEGKVVGAATKQDIYSEDDLKVAIIRANTDVKVDGEICYVSCQNVKLTGKDSVSIRDGYYLETGSVTASVDVTGQESVGTEQLSGTEQMEMTGEPVNADDTEQTEAAAGDGSFETDVYTFIVYK",8.9%,1.0%,0.9%,12.5%,2.6%,12.1%,2.5%,27.8%,0.9%,20%,3.0%,38.6%,significantly reduced the 4KDa-FITC signal,significant increase in the colon length,precipitated,"Deamidation of N83 [1, 5]: 19.4%; Deamidation of N83 [1, 6]: 98.1%; Deamidation of N83 [1, 7]: 93.9%; Deamidation of N83 [1, 8]: 87.4%; Deamidation of N83 [1, 9]: 98.1%; Deamidation of N83 [1, 10]: 96.2%; colon length [2, 11]: prevented colon shortening elicited by DSS; colon weight to length ratio [2, 11]: significant improvement in colon weight to length ratios; histopathology: edema score of colon [2, 11]: reduced edema to a similar level as Gly2-GLPs, though the difference did not reach statistical significance; 4KDa-FITC dextran translocation across the epithelial barrier (serum) ([2]; Example 4, 50 nmoles/kg i.p. b.i.d., 2.5% DSS 6 days, vs DSS + vehicle): significant reduction in 4KDa-FITC dextran; body weight [2, 12]: significantly improved body weight; gross pathology (clinical score 0-5) [2, 12]: significantly improved gross pathology; serum LPS binding protein (LBP) concentration [2, 12]: significant reduction in LBP; aggregate formation by analytical SEC ([3]; 100 mM arginine at pH 7.0): greatly suppressed"
"SG-11V5: variant of SEQ ID NO:7 with N53S, N83S, C147V, C151S (protein, Artificial variant of SG-11 (N53S, N83S, C147V, C151S)) MLEGEESVVYVGKKGVIASLDVETLDQSYYDETELKSYVDAEVEDYTAEHGKSAVKVESLKVEDGVAKLKMKYKTPEDYTAFSGIELYQGKVVASLAAGYVYDGEFARVEEGKVVGAATKQDIYSEDDLKVAIIRANTDVKVDGEIVYVSSQNVKLTGKDSVSIRDGYYLETGSVTASVDVTGQESVGTEQLSGTEQMEMTGEPVNADDTEQTEAAAGDGSFETDVYTFIVYK",2.5%,0.1%,0.3%,4.7%,3.3%,3.3%,0.1%,5.9%,1.5%,2.7%,0.4%,5.6%,"reduced the 4KDa-FITC signal, although the difference did not reach statistical significance",significant increase in the colon length,precipitated,"gross pathology (clinical score 0-5) ([2]; Example 13, 160 nmoles/kg dose, p<0.002): significant improvement; body weight ([2]; Example 13A, 158 nmoles/kg, day 6): significant improvement in body weight; serum LBP ([2]; Example 13A, 158 nmoles/kg, p=0.003): significant reduction in LBP production; aggregation by analytical SEC ([3]; all conditions tested (pH 5.2, 7.0, 8.0; NaCl, arginine, sorbitol)): did not show a large amount of aggregation"
